# Reference: the supplement of paper PMC9170038
# Test system: MS2 coat protein
# Assay: apparent KD of MS2 coat protein; designed switch direction (-1 OFF switch, 1 ON switch): 1; higher = weaker reporter binding
# How it was run: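 SNAP-549-labelled MS2 coat protein was titrated, doubling from 0.7 or 1.5 nM to 3 µM, over designed RNA switches transcribed on Illumina chips by stalled E. coli RNA polymerase. Runs were done without input, with 200 uM small-molecule ligand, or with an oligonucleotide input. Apparent KD is the per-design median over clusters of curve-fitted normalised fluorescence.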
# [1] = input ligand: microRNA oligo, concentration not stated
# [2] = Eterna round: R95, input ligand: FMN 200 uM
# [3] = Eterna round: R95, input ligand: microRNA oligo, concentration not stated
# [4] = Eterna round: R95, input ligand: none
Sequence,apparent KD of MS2 coat protein (input ligand: FMN 200 uM) [nM],apparent KD of MS2 coat protein [1] [nM],apparent KD of MS2 coat protein (input ligand: none) [nM],apparent KD of MS2 coat protein [2] [nM],apparent KD of MS2 coat protein [3] [nM],apparent KD of MS2 coat protein [4] [nM]
"CUUUUUAAUGCAGGAUAUGAUCAACAUGAGGAUCACCCAUGUGGUGUUGUGAGUAAGGAGAGUGAUCAGAAGGGCAUCUUCUCA [SS-NG2-LRO05] (Eterna round: R96, puzzle: Same State NG 2)",301,133,169,–,–,–
"CUUUUUCACUAUACAUGAGGAUCACCCAUGUUAUCAUCAUGAGAGGAUAUCGUAAUAGGAUUUUUCGAGAAGGCUCUAAAGUAU [JR_SSNG3_Sub079] (Eterna round: R96, puzzle: Same State NG 3)",26.3,43,45,–,–,–
"GAAACAUGACGAGGAUAUGGAACAUGAGGAUCACCCAUGUAUGUUCCAUAACGCGAAUGACGAAUCCAGAAGGCGUCGUGAAAG [Mat - Same State NG 2 - JL mod - D28] (Eterna round: R96, puzzle: Same State NG 2)",33.6,177,233,–,–,–
"GAAACAUGACGAGGAUAUGGUACAUGAGGAUCACCCAUGUAUGUACCACGACGCGUACGUCGAAUCCAGAAGGCGUCGUGAAAG [Mat - Same State NG 2 - JL mod - D20] (Eterna round: R96, puzzle: Same State NG 2)",27.8,51.1,86.4,–,–,–
"GAAAGGCCUACAGGAUAUACCACAGUCUUGUCGGUAGAAGGGUGGGACAUGAGGAUCACCCAUGUACACUCCCAGAUGGGAGUG [Ergeesis] (Eterna round: R96, puzzle: Same State NG 1)",767,135,476,–,–,–
"GAAUAGUUGAGAGGAUAUGGAUUAUUGUAGGAUCCAGAAGGUUUUAACAUGAGGAUCACCCAUGUAGGACUAUAUAUGUGAAUA [Parity 97 - Jieux - Same State NG 1] (Eterna round: R96, puzzle: Same State NG 1)",13.1,11.7,19.5,–,–,–
GACAAUCUAUCUGAGGAUAUCAUGAAGAAAACAUGAGGAUCACCCAUGUGCAGGAUAACUGCAAAUGAGAAGGCAGAUAGAUUGG [Mat - Same State 2 - Mod - D3] (puzzle: Same State 2),–,–,–,10.9,16.8,20
GACCAACAUGAGGAUCACCCAUGUUUCUGAGGCACAGGAUAUCGACAGGCAAGACACCUGCGAGAAGGGUGACCUC [Same State 1 - Mod of Vinnie Diatater v.3] (puzzle: Same State 1),–,–,–,49.2,38.8,30.2
GAGAAGAGGGACAAGGAUAUGUCAGGAGAGACAUGAGGAUCACCCAUGUAGAGGUUGGAGGAGAGACAGAAGGUGUCGAGAGCGA [JR_SS2_Sub014] (puzzle: Same State 2),–,–,–,123,143,361
GAGAGAGGAAGCGAGGAUAUCGUGUUAGGUACAUGAGGAUCACCCAUGUUGUAGGUAGAGGUAGGCGAGAAGGCGCAGGAGAGGU [JR_SS2_Sub095] (puzzle: Same State 2),–,–,–,26.7,26.4,32.2
"GAGAGAGGGUGAGGAUAUUCAGUAAUAAUGAUAGAAGAAGGCACAGACAUGAGGAUCACCCAUGUGGGAAUAAUCCAGAGAGAG [Parity 3 - Jieux - Same State NG 1] (Eterna round: R96, puzzle: Same State NG 1)",–,158,–,–,–,–
"GAGAGAGGGUGAGGAUAUUUAGUGAUAAUGAUGGGAGAAGGCACAGACAUGAGGAUCACCCAUGUGGGAAUAAUCCAGAGAGAG [Parity 10 - Jieux - Same State NG 1] (Eterna round: R96, puzzle: Same State NG 1)",145,92.7,232,–,–,–
"GAGCCAGUCCGAGGAUAUUCAUAUACAUGAGGAUCACCCAUGUAGGCUCAGAAAAGAGAGCCUUGGGAGAAGGCGGACUGGCUC [Xeonanisa<<4] (Eterna round: R96, puzzle: Same State NG 2)",8.38,27.3,50.8,–,–,–
GAGGCACAUGAGGAUCACCCAUGUGGGCGGAACAUAGGAUAUCGCCAACAAUAAGCCCGGUGAGAAGGAUGAUGCC [Lexereat] (puzzle: Same State 1),–,–,–,46.2,17.6,36.4
GAGGCACAUGAGGAUCACCCAUGUGGGUAGAACAUAGGAUAUCACCAACAAAUUACCCGGUGAGAAGGAUGAUGCC [Zalaarza] (puzzle: Same State 1),–,–,–,–,151,–
GAGGGAUGAGCGUAGGAUAUAGGAGGAGUGACAUGAGGAUCACCCAUGUGGUAUGAGGGAGGAUUCUAGAAGGACGCGGUAGAAG [JR_SS2_Sub064] (puzzle: Same State 2),–,–,–,66.4,172,235
"GAGGGCGAAAGCAACAUGAGGAUCACCCAUGUCCUCGGAGGGCAGGAUAUCCGGCGGUAGCCGAAGGAGAAGGGUCGGUAAACC [AK SSNG3-V2-33] (Eterna round: R96, puzzle: Same State NG 3)",258,214,184,–,–,–
"GAGUAGUUGGGAGGAUAUGCAUUGUUAUUAAAUGCAGAAGGUUUUAACAUGAGGAUCACCCAUGUAGGACUAUUCCUGUGUAUC [Parity 70 - Jieux - Same State NG 1] (Eterna round: R96, puzzle: Same State NG 1)",17.3,13.7,17.1,–,–,–
"GAGUGGAGGAGAGGAUAUACAAUGAUAAUCACAGUAGAAGGUUCUAACAUGAGGAUCACCCAUGUAGGACUAUUCCUGAGAGUU [Parity 50 - Jieux - Same State NG 1] (Eterna round: R96, puzzle: Same State NG 1)",10.8,9.56,12.8,–,–,–
"GAGUGGUGGAGAGGAUAUACAUUGUUAUUCACUGUAGAAGGUUCUAACAUGAGGAUCACCCAUGUAGGACUAUUCCUGUGUUUU [Parity 57 - Jieux - Same State NG 1] (Eterna round: R96, puzzle: Same State NG 1)",–,9.37,–,–,–,–
GAUUCACAUGAGGAUCACCCAUGUCGUUUAAUGGGAGGAUAUACGUGGACCGUAGUCCGCGUAGAAGGCCUAAUUG [Mat - Same State 1 - Mod of JL - D24] (puzzle: Same State 1),–,–,–,–,74.4,–
GCAGAACAUGAGGAUCACCCAUGUCUCUAAUAUCGAGGAUAUGGGCAGGGUAUAUCCCAACCAGAAGGCGAACUGC [SS1 Teenbexe 14] (puzzle: Same State 1),–,–,–,51.7,140,205
"GCAGGAAGCAAAGGAUAUGGAAGAUUACUCAGUCCAGAAGGUUGCUUCUUGGAACAUGAGGAUCACCCAUGUCACCGUUACGGC [Eternabot solution 30] (Eterna round: R96, puzzle: Same State NG 1)",15.8,19,14.5,–,–,–
"GCCAUCGAGUGAGGAUAUGGCACCGUUUCGGUGCCAGAAGGCAUGUCAAUUGACAUGAGGAUCACCCAUGUAUUAUCGAUGGCA [JL Fiskers NG1ss - 33 mod 4] (Eterna round: R96, puzzle: Same State NG 1)",75.4,556,835,–,–,–
"GCCAUCGCAUGAGGAUAUGGCACCGAAACGGUGCCAGAAGGCAUGUCGAAAGACAUGAGGAUCACCCAUGUAGUAUAGAUGGCA [Mat - Same State NG 1 - JL mod - D93] (Eterna round: R96, puzzle: Same State NG 1)",222,228,900,–,–,–
"GCCAUCGCAUGAGGAUAUGGCACCGAAACGGUGCCAGAAGGCAUGUCGAAUGACAUGAGGAUCACCCAUGUAGUAUAGAUGGCA [Mat - Same State NG 1 - JL mod - D92] (Eterna round: R96, puzzle: Same State NG 1)",52.9,571,628,–,–,–
"GCGAAGAGGUAAGGAUAUGCAUGGCGGAGACAUGAGGAUCACCCAUGUUGGAGACGAAAUCUAGGGUAGAAGGUACCAGGACGC [AK SSNG2-V2-13] (Eterna round: R96, puzzle: Same State NG 2)",41.5,64.6,72.9,–,–,–
"GCGAGCGUACUUGCAACAUGAGGAUCACCCAUGUUAACUGGACAGGAUAUGGUACCGUUUCGGUACCAGAAGGGUUCAUCAUGU [JL SSNG3 3.67] (Eterna round: R96, puzzle: Same State NG 3)",74.1,147,183,–,–,–
"GCGAGCGUACUUGCUACAUGAGGAUCACCCAUGUUUAUUGGACAGGAUAUGGUACCGUUUCGGUACCAGAAGGGUUCAUCAUGU [JL SSNG3 3.70] (Eterna round: R96, puzzle: Same State NG 3)",294,471,547,–,–,–
"GCGAGCGUACUUGCUACAUGAGGAUCACCCAUGUUUUAUGGACAGGAUAUGGUACCGUUUCGGUACCAGAAGGGUUCACAUGUG [JL SSNG3 3.82] (Eterna round: R96, puzzle: Same State NG 3)",133,186,254,–,–,–
